Experimental data reported in doi:10.1101/2024.09.13.612941.

T1: SMARCAD1 (human, UniProt Q9H4L7-2 1-1028, V974A)
T1 sequence: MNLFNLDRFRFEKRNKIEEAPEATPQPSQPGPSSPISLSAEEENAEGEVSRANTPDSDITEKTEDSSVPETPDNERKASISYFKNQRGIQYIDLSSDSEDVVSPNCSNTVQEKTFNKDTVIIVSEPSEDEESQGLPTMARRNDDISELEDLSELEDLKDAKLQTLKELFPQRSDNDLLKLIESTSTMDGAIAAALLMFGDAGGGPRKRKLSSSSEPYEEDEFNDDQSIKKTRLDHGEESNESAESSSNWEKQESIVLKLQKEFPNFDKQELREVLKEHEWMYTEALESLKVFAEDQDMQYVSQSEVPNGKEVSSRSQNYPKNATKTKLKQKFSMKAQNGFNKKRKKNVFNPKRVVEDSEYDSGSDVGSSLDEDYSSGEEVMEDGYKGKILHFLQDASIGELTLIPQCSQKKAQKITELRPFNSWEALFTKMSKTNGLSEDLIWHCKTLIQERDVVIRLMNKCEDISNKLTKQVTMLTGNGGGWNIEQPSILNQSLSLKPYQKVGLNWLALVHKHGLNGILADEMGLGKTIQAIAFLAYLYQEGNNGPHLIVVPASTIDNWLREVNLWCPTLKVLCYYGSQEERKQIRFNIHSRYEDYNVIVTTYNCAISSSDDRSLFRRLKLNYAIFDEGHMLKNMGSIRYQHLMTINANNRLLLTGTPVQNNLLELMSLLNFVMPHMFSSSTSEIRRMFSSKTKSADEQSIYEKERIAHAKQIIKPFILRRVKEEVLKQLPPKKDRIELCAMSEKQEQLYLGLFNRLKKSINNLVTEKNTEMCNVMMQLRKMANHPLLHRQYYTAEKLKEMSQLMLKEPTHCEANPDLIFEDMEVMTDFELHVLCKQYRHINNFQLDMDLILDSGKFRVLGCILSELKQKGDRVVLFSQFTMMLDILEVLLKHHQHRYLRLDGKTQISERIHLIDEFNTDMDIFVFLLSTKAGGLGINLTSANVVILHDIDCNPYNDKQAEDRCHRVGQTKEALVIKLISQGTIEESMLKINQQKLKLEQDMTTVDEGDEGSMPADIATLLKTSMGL


Columns and labels:
SMARCAD1 [1] = target: T1, SMARCAD1; experiment: fluorescence polarization
SMARCAD1 [2] = target: T1, SMARCAD1; experiment: fluorescence polarization; remark: listed apart in the source

Binder	apparent K (half saturation) (SMARCAD1 [1])	binding result (SMARCAD1 [2])
R-loopshort (mixed) DNA 1: GCCAGGGACGAGGTGAACCTGCAGGTGGGCGGCTACTACTTAGATGTCATCCGAGGCTTATTGGTAGAATTCGGCAGCGTCATGCGACGGC DNA 2: GCCGTCGCATGACGCTGCCGAATTCTACCACGCGATTCATACCTGTCGTGCCAGCTGCTTTGCCCACCTGCAGGTTCACCTCGTCCCTGGC RNA: GCAGCUGGCACGACAGGUAUGAAUC	26.1 ± 1.4 nM	–
DNA-RNA hybrid (DNA:RNA) RNA: GCAGCUGGCACGACAGGUAUGAAUC DNA: GATTCATACCTGTCGTGCCAGCTGC	–	binds
dsDNAshort (dsDNA) DNA 1: GCAGCTGGCACGACAGGTATGAATC DNA 2: GATTCATACCTGTCGTGCCAGCTGC	39.5 ± 2 nM	–
